{
  "source": "the DeepSol protein solubility set",
  "data": [
    {"assay": "soluble on expression in E. coli; label from the status in PepcDB or PDB records", "values": [
      {"sequence": "SNAMNNIRLLNQNDLDSYIELMKFGHHNYEWDRYYLENVSIDRLKTILSNHTDYWNIFGAFEDDELVATCTLKQMNYVGKCHKAILENNFVKNNDEIVNRELINHIIQYAKEQNIETLMIAIASNNISAKVFFSSIGFENLAFEKNASKIGNEYFDENWLIYSTTESSD", "soluble on expression in E. coli": "soluble"},
      {"sequence": "MGSDKIHHHHHHMTPRDTVAAFPATSQQSAIRATPFVWIEPANIPPRKWLYGHHLIRGYVSLTVAPGATGKSSLLIADALAMSANRNLVGTPVYAGRPLRVWIWNLEDPIDELQRRITATAIQYQIHSTDIEGRLFVDSGRDQSLCIARQGHNGIEILDPVIDALQAEILAREIDVLIVDPFVSSHQVSENDNGAIDAVAKKWGAIADRTGCAIELVHHLRKLPHGIEATAESARGAVSLVAAARSVRVLNRMAKEEALQCGLTSNKGHFKVSDDKNNLAAATDSENWFRMESVQLDNGDNVGVVVQWDKPDPFDGITPRHLLAVQKAIDGKDYRQNVQATDWVGQHIGHIVGLDPAKPHDKNRLKSLIKTWINNGALIADEIMNKKGRPTPVIAVGKWVTAAEVAATNVADDEFPLG", "soluble on expression in E. coli": "not soluble"},
      {"sequence": "MGSDKIHHHHHHMKTPWLVNGKLANLYLLYGTERHLLEEWEREIVKAALPDGERFDYMKIDLNDQPLDAVLDEAETVPFLSDYRVVIAKPATFLTGAKDKKTHNVERLAEYIVQPADYAVVVLIVEAEKLDERKTIVKRLKDRAVILEAKKPTTEELFRFVMDAVNDKGYRMERPAIERLIFLTGEMWATLTRELDKLMLYAGDHPTIELEDVNLLVPRTLEDNVFQLTDYLMKRQLEPAIRLIRDLEKQGQEVLALLGLMARQYRMMLLSKRLAEQGYGERQIASKVGAHPYAIKLALQAGKRFTFAQLEQALVAITTTDEGMKTGRGDKRILFDALIVRLATL", "soluble on expression in E. coli": "not soluble"},
      {"sequence": "DDGSNEDTKQALSALSEQGLIKLISLSENQGKGGAVMAGLHQAHQLGFTHTIQIDADGQHDLEALPKLLSASETKPDNLISGQPIYDESVPKARLYGRYATHIWVWIETLSLSIKDSMCGFRAYPVAKTVAVLNKYNIGKRMDFDIEILVRMYWEGVDIDFVPTRVIYPEGGISHFDALWDNVKISWMHTRLFFGMLPRIPSLLARKRRHTDDSNAHWSKRKEQGTILGIKTLLAVYRLFGRKAFDLILKLVMRYYHFTGKSAREASEIYLQNLQRYAAQQNIALPKQLDSYHHLLSFGRTMLDKLAAWQGDFNVDNLTIHGQHHFEEMAQKKQGVLILGSHLGNIELCRALGRRHSHVKINALVFTQHAEQFNAVMKAVNPNSELNLIQVSSMGPDTAILLQQKIEQGEWVVIVGDRTSTSKENRVVWADFLGKPAPFPQGP", "soluble on expression in E. coli": "not soluble"},
      {"sequence": "MDIRQLQFFVAIVRFGSFTKAAERLRVAQPAVSMAMKRLEEELDLVLFNRQERKVSLTAEGEIFLRHAEKILEEVASTETEMEELRGLAKGEVRVGIPPMMSAYFFPQIIRDFSNRYPELHLSVSGEGASKIQKMILDGELDMGVIAGASFPDTLELRRFLREEVIVCVPKNHHLAEMERLPLQEFARHPLIFYKEGYYLRELVFDVMRGAGLNPAIRFETNLYTLVKSLIRKGMGISVFLRMVVEEDDDLEAIPLDPPLYLDLQIAWKKYGYLSRANRAFVDFLLEQSARAHQPVGSCPARLVPAG", "soluble on expression in E. coli": "not soluble"},
      {"sequence": "MAHHHHHHMLPLDSPPVTQLAKEFVNFINEACTPFHAVEVLSSWLSNAGYQRLKEGETWPKLTNGYRYFITRNDSSLVAFSVGGRFVAENGLKIVGAHTDSPNLALKPRTLAGRSDYQGVAVQCYGGGLWHTWFDRDLTVAGRVIISSSKLVKRLVKVNKPIMRIPTLAIHLQSVEERNAFGPNKEKHLVPVIATTLSHTPNGDVSEHHNSQLLILLAESLGCRPSEIVDYDLSVVDTQDAVVGGANDEFIYAPRLDNLISCFCGVKALLESDKTLEEENMIRMVCLFDNEEVGSSTSQGAGGSLVPDVIEYISASGGLRAQLVANSFLMSVDGAHAVHPNYQDKHEEKHRPLIHRGPVIKYNANMRYATNGVTAAIVKAIAKRASVPIQEFCVKNDSPCGSTIGPILSSLSGIQTVDLGNPMLSMHSIREMCGTADLLHLKNLLEAFFNHYTRDMVTS", "soluble on expression in E. coli": "not soluble"},
      {"sequence": "AIANDDRATAFNALKNKTVCVQGDGNSRQFYHALVEILSNHSSAIPVNKNGNDFCNAPFAQCPQDTYYFDLVDKSDNLSVKLYWRWAPEFSDIECPMKVPSGFTPGSNYSFPSGPDTLSCDINIMDAGQWELFEKDANVTTAGYSQGVSNLSKCFSSDKSAKYFWIAAYALTPEQLQIHLPYNNTDVERINEVATQGLNSTACVLNGYDVTVNAFNDTKEATTDGIHYLGWINEQVVHLFFNAVTNSSAPTVPSSNVSVTSPNVQLGQVPNLNPSTTNSFLPVQTIVTVPSSSATSASSGLNFGGSSQGGGSGIPQL", "soluble on expression in E. coli": "soluble"},
      {"sequence": "MGVPIGDLVPRKEIDLENLYGKKIAIDALNAIYQFLSTIRQEDGTPLMDSKGRITSHLSGLFYRTINLMEAGIKPAYVFDGKPPEFKRKELEKRREAREEAELKWKEALAKGNLEEARKYAQRATKVNEMLIEDAKKLLQLMGIPIIQAPSEGEAQAAYMASKGDVYASASQDYDSLLFGAPRLIRNLTITGKRKMPGKDVYVEIKPELVVLDEVLKELKITREKLIELAILVGTDYNPGGVKGIGPKKALEIVRYSRDPLAKFQRQSDVDLYAIKEFFLNPPVTNEYSLSWKEPDEEGILKFLCDEHNFSEERVKNGIERLKKAIKAGRQSTLESWFVKKKP", "soluble on expression in E. coli": "soluble"},
      {"sequence": "GLEAVRKRPGMYIGSTSERGLHHLVWEIVDNSIDEALAGYANQIEVVIEKDNWIKVTDNGRGIPVDIQEKMGRPAVEVILTSSVVNALSQDLEVYVHRNETIYHQAYKKGVPQFDLKEVGTTDKTGTVIRFKADGEIFTETTVYNYETLQQRIRELAFLNKGIQITLRDERDEENVREDSYHYE", "soluble on expression in E. coli": "soluble"},
      {"sequence": "MSNRKYFGTDGIRGRVGDAPITPDFVLKLGWAAGKVLARHGSRKIIIGKDTRISGYMLESALEAGLAAAGLSALFTGPMPTPAVAYLTRTFRAEAGIVISASHNPFYDNGIKFFSIDGTKLPDAVEEAIEAEMEKEISCVDSAELGKASRIVDAAGRYIEFCKATFPNELSLSELKIVVDCANGATYHIAPNVLRELGANVIAIGCEPNGVNINAEVGATDVRALQARVLAEKADLGIAFDGDGDRVIMVDHEGNKVDGDQIMYIIAREGLRQGQLRGGAVGTLMSNMGLELALKQLGIPFARAKVGDRYVLEKMQEKGWRIGAENSGHVILLDKTTTGDGIVAGLQVLAAMARNHMSLHDLCSGMKMFPQILVNVRYTAGSGDPLEHESVKAVTAEVEAALGNRGRVLLRKSGTEPLIRVMVEGEDEAQVTEFAHRIADAVKAV", "soluble on expression in E. coli": "not soluble"},
      {"sequence": "ESSFTYTLDEKVAELVEFLLLKYEAEEPVTEAEMLMIVIKYKDYFPVILKRAREFMELLFGLALIEVGPDHFCVFANTVGLTDEGSDDEGMPENSLLIIILSVIFIKGNCASEEVIWEVLNAVGVYAGREHFVYGEPRELLTKVWVQGHYLEYREVPHSSPPYYEFLWGPRAHSESIKKKVLEFLAKLNNTVPSSFPSWYKDALKDVEERVQATIDTADD", "soluble on expression in E. coli": "soluble"},
      {"sequence": "MAHHHHHHMCAKESCRAVNQGIRKECESCGTEKPQLLGWKCEGCSTINHAGVRKCKKCADASDKSKEFWMCAVCHENNRVDEIEDNSRCGFCGYDMAPHSVAEEEILRRATEKTVMLQQQQEHFDSVSYTEADEQFTNPLEGAEALDPSLRAIHPGSEAPITGRVLKLPAVAPFVAGGVPETRHSPLHQRRKVHPALQTVLEGATAPEGPPGFDWMCRDSSCGHINPGDEESCLKCGSHITPAEWEVPVMRVLEPPGTLALLLLQKPHSGLLDLQCVSGDDEHL", "soluble on expression in E. coli": "not soluble"},
      {"sequence": "RIKEKTISHWVAMQGIAMIQLNLLRTSQSQESTQATTMLGQKWYWRAKISPTPIKRMQQITISVSSKQAGPFREELIAFRYLP", "soluble on expression in E. coli": "not soluble"},
      {"sequence": "MEVDEDIELQKHQEQQSRKLQRFSEDNTGLMRNWNNPSSRIIRVSRASGGKDRHSKVLTSKGLRDRRIRLSVATAIQFYDLQDRLGFDQPSKAVEWLINAASDSITDLPLLNTNFDHLDQNQNQTKSACSSGTSESSLLSLSRTEIRGKARERARERTAKDRDKDLQNAHSSFTQLLTGGFDQQPSNRNWTGGSDCFNPVQLQIPNSSSQEPMNHPFSFVPDYNFGISSSSSAINGGYSSRGTLQSNSQSLFLNNNNNITQRSSISSSSSSSSPMDSQSISFFMATPPPLDHHNHQLPETFDGRLYLYYGEGNRSSDDKAKERR", "soluble on expression in E. coli": "not soluble"},
      {"sequence": "MGSDKIHHHHHHMSRIVNVKLSLKRYEYEKPFHITGSVSSESRNVEVEIVLESGVKGYGEASPSFRVNGERVEALLAIENAVREMITGIDVRNYARIFEITDRLFGFPSLKAAVQFATLDALSQELGTQVCYLLGGKRDEIETDKTVGIDTVENRVKEAKKIFEEGFRVIKIKVGENLKEDIEAVEEIAKVTRGAKYIVDANMGYTQKEAVEFARAVYQKGIDIAVYEQPVRREDIEGLKFVRFHSPFPVAADESARTKFDVMRLVKEEAVDYVNIKLMKSGISDALAIVEIAESSGLKLMIGCMGESSLGINQSVHFALGTGAFEFHDLDSHLMLKEEVFRGKFIQDGPRMRVKDQ", "soluble on expression in E. coli": "not soluble"},
      {"sequence": "MAARPKLHYPNGRGRMESVRWVLAAAGVEFDEEFLETKEQLYKLQDGNHLLFQQVPMVEIDGMKLVQTRSILHYIADKHNLFGKNLKERTLIDMYVEGTLDLLELLIMHPFLKPDDQQKEVVNMAQKAIIRYFPVFEKILRGHGQSFLVGNQLSLADVILLQTILALEEKIPNILSAFPFLQEYTVKLSNIPTIKRFLEPGSKKKPPPDEIYVRTVYNIFRP", "soluble on expression in E. coli": "soluble"},
      {"sequence": "MAESRSPDRGAKEDKPRPRNISREESLQLEGYKHACHALLHAPSQAKLFDRVPIRRVLLMMMRFDGRLGFPGGFVDTRDISLEEGLKRELEEELGPALATVEVTEDDYRSSQVREHPQKCVTHFYIKELKLEEIERIEAEAVNAKDHGLEVMGLIRVPLYTLRDRVGGLPAFLCNNFIGNSKSQLLYALRSLKLLREDQIQEVLKASHRLQY", "soluble on expression in E. coli": "soluble"},
      {"sequence": "MTVAVSPDGLPALVLNADYRPLSYYPLSLWSWQDAIKAVFLDRVNIVAEYEHAVSSPTFSMKLPSVVSLKAYVKPSRHPAFTRFNVFLRDRFQCQYCGTPDDLTFDHVIPRHRGGATTWENVVAACSPCNLRKGGMMPAHAKMWPLQKPYQPTVHDLHNNGRLFPPNHLHESWMDYLYWDVELEPLEHHHHHH", "soluble on expression in E. coli": "not soluble"},
      {"sequence": "MNNNTTAPTYTLRGLQLIGWRDMQHALDYLFADGQLKQGTLVAINAEKMLTIEDNAEVRELINAAEFKYADGISVVRSVRKKYPQAQVSRVAGADLWEELMARAGKEGTPVFLVGGKPEVLAQTEAKLRNQWNVNIVGSQDGYFKPEQRQALFERIHASGAQIVTVAMGSPKQEIIMRDCRLVHPDALYMGVGGTYDVFTGHVKRAPKIWQTLGLEWLYRLLSQPSRIKRQLRLLRYLRWHYTGNL", "soluble on expression in E. coli": "soluble"},
      {"sequence": "MAHHHHHHMGTLEAQTQGPGSMKISFSEIIHNALKEDLGDKGDITTNSILINEKVNFAINTRENLVVCGIPILEEVFNMNKEHVKYEIHKKDGDITGKNSTLVSGEALAIYLLPIERVILNFIQHASGIASITRQFVDEVSGTKVKIRSTRKTTPGLRMLDKYSVCIGGGESYRDNLCDGVLIKDNHIASCGSITLAIQRLRKNLKNEYIAIECDNISQVEESLSNNVDMILLDNMSISEIKKAVDIVNGKSVLEVSGCVNIRNVRNIALTGVDYISIGCITNSFQNKDIGLDIEYNNNK", "soluble on expression in E. coli": "soluble"}
    ]}
  ]
}
